Patent US20240181022A1, “AMURINS LYSINS, AND LYSIN-ANTIMICROBIAL PEPTIDE (AMP) CONSTRUCTS ACTIVE AGAINST GRAM-NEGATIVE BACTERIA” (priority 2021, published 2024)
Like-named read-outs stand apart in the source and are kept apart here. Where no end group is shown, it is not given here. [ ]: non-standard residue; d: D form.

Key:
B. multivorans [1] = assay: MIC by broth microdilution against B. multivorans; type: cell-based, Burkholderia multivorans; details: B. multivorans isolates
Protocol: (§1) MIC values were determined using a modification of the standard broth microdilution reference method defined by the Clinical and Laboratory Standards Institute (CLSI), CLSL. 2015. Methods for Dilution Antimicrobial Susceptibility Tests for Bacteria That Grow Aerobically; Approved Standard-10th Edition. Clinical and Laboratory Standards Institute, Wayne, PA. The modification was based on the replacement of Mueller Hinton Broth with either CAA media (with and without NaCl) or CAA supplemented with 2.5% human serum. MIC is the minimum concentration of peptide sufficient to suppress at least 80% of the bacterial growth compared to control.
(§2) Based on these nine most prevalent strains, direct lytic agents, including GN370, AM1, AM2, and AM3, were evaluated against various isolates from each of the 9 strains. MICs and MBECs (Example 3) were determined, and a sputum inhibition test was conducted, as described below in Example 5.
(§3) The MICs for were determined as described below using the broth microdilution method for meropenem, GN370, AM1, AM2, and AM3. The results are shown below in Tables 8-12.

A. ruhlandii = assay: MIC by broth microdilution against A. ruhlandii; type: cell-based, Achromobacter ruhlandii; details: A. ruhlandii isolates
Protocol: as §1, §2, §3

P. apista = assay: MIC by broth microdilution against P. apista; type: cell-based, Pandoraea apista
Protocol: as §1, §2, §3

Achromobacter spp. = assay: MIC by broth microdilution against Achromobacter spp.; type: cell-based; details: Tables 8-12
Protocol: as §1, §3

M. scrofulaceum = assay: MIC against M. scrofulaceum; type: cell-based, Mycobacterium scrofulaceum; details: M. scrofulaceum (ATCC 19981); CAAT media
B. gladioli = assay: MIC by broth microdilution against B. gladioli; type: cell-based, Burkholderia gladioli; details: B. gladioli isolates
Protocol: as §1, §2, §3

P. aeruginosa [2] = details: for activity (MIC) against P. aeruginosa isolates: all tested isolates, Tables 8-12
S. maltophilia [3] = assay: Serial passage resistance development study, S. maltophilia; type: cell-based, Stenotrophomonas maltophilia; details: S. maltophilia, day 28, triplicate
[4] = system: Gram-negative bacteria (including P. aeruginosa, E. cloacae, K. pneumoniae, E. coli, and A. baumannii); assay: Inner membrane depolarization (diSC3-5 release); type: cell-based; details: equivalent or superior to melittin, LL37, RI-18, and PMBN
Source text: The mechanism of action of Chp peptides disclosed herein can also be evaluated by measuring the depolarization of the inner membrane of Gram-negative bacteria, including MDR and XDR strains. The inner membrane comprises […] phospholipids such as cardiolipin, phosphatidylglycerol, and phosphatidylserine. This creates a net negative charge at physiological pH, which is believed to enhance the binding of cationic peptides, including the Chp peptides disclosed herein. Upon permeabilization of the outer membrane, the ability of Chp peptides to induce dissipation of the cytoplasmic membrane electrical potential gradient (Ay) may be examined, for example by following the release of 3,3′-dipropylthiadicarbocyanine (diSC3-5) as a function of time compared to an untreated control. DiSC3-5 is a fluorophore that is a caged cation concentrated within the bacterial inner membrane and under the influence of the bacterial membrane electrical potential gradient. At high concentrations, diSC3-5 self-quenches, leading to the suppression of fluorescence. When the inner membrane deteriorates or becomes leaky for cations, including protons, the Δψ dissipates, which leads to a release of diSC3-5 and a subsequent increase in fluorescence. […] Without wishing to be bound by theory, it is believed that the adsorption and binding of Chp peptides to the inner membrane and insertion into the lipid bilayer results in membrane permeabilization and pore/ion channel formation, which is concomitant with the collapse of the membrane's electrical potential.

B. multivorans [5] = system: B. multivorans
Protocol: (§4) Biofilms are then washed and treated with e.g., a 2-fold dilution series of the lysin in TSBg at e.g., 37° C. for 24 hours. After treatment, wells are washed, air-dried at e.g., 37° C. and stained with e.g., 0.05% crystal violet for 10 minutes.
(§5) The antibiofilm activity of GN370, AM1, AM2, and AM3 was evaluated against various Gram-negative bacteria prevalent in cystic fibrosis patients, including P. aeruginosa, S. maltophilia, and A. xylosoxidans.
(§6) The MBEC (after 2-hour treatments) was determined as described in Jones and Wozniak, PsI Produced by Mucoid Pseudomonas aeruginosa Contributes to the Establishment of Biofilms and Immune Evasion, Am. […] Microbiol.

A. xylosoxidans = system: A. xylosoxidans
Protocol: as §4, §5, §6

S. maltophilia [6] = details: for antibiofilm activity (MBEC) against S. maltophilia: 2-hour treatments
Protocol: as §4, §5, §6

M. smegmatis = assay: MIC against M. smegmatis; type: cell-based, Mycobacterium smegmatis; details: M. smegmatis (MC 155); CAAT media
A. dolens [7] = assay: MIC by broth microdilution against A. dolens; type: cell-based, Achromobacter dolens; details: A. dolens isolates
Protocol: as §1, §2, §3

P. aeruginosa [8] = details: for antibiofilm activity (MBEC) against P. aeruginosa: 2-hour treatments
M. kansasii = assay: MIC against M. kansasii; type: cell-based, Mycobacterium kansasii; details: M. kansasi (ATCC 12478); CAAT media
A. dolens [9] = type: cell-based, Achromobacter dolens
Protocol: The MBEC (after 2-hour treatments) was determined as described in Jones and Wozniak, PsI Produced by Mucoid Pseudomonas aeruginosa Contributes to the Establishment of Biofilms and Immune Evasion, Am. Soc. Microbiol. 2017, 8(3):e00864-17. Meropenem and tobramycin were included as controls and were both poorly active, with MBEC90 values of >256 μg/mL (data not shown).

[10] = P. aeruginosa test organism of the sputum time-kill assay
[11] = Pandoraea apista, N 11 (Table 26)
[12] = MDR P. aeruginosa isolates (n = 13)
[13] = Pseudomonas aeruginosa, AR Bank, N 67
[14] = Pseudomonas aeruginosa, Weill Cornell, N 55
[15] = Pseudomonas aeruginosa, all isolates, N 122
[16] = carbapenem-resistant P. aeruginosa isolates (n = 12)
[17] = mucoid P. aeruginosa isolates (n = 11)
[18] = α-hemolytic P. aeruginosa isolates (n = 13)
[19] = B. multivorans (15), 2-hour treatment
[20] = A. xylosoxidans (15), 2-hour treatment
[21] = S. maltophilia (26), 2-hour treatment
[22] = P. aeruginosa (28), 2-hour treatment
[23] = A. dolens (15), 2-hour treatment

M[dR]L[dK]MA[dR][dR][dR]Y[dR]LP[dR][dR][dR]S[dR][dR]LFS[dR]TAL[dR]MHP[dR]N[dR]L[dR][dR]IM[dR]GGI[dR]F [AM2]
MIC50 (B. multivorans [1]): > 128 µg/mL
MIC90 (B. multivorans [1]): > 128 µg/mL
MIC50 (A. ruhlandii): 2 µg/mL
MIC90 (A. ruhlandii): 16 µg/mL
MIC50 (P. apista; P. apista isolates): > 128 µg/mL
MIC90 (P. apista; P. apista isolates): > 128 µg/mL
activity (MIC) against Achromobacter spp. (Achromobacter spp.): variably active
MIC (M. scrofulaceum): 16 µg/mL
MIC50 (B. gladioli): 4 µg/mL
MIC90 (B. gladioli): 8 µg/mL
MIC Range (B. gladioli; in µg/mL): 0.016-16
MIC50 (P. aeruginosa [2]; P. aeruginosa isolates): 0.06 µg/mL
MIC90 (P. aeruginosa [2]; P. aeruginosa isolates): 0.25 µg/mL
MIC Range (P. aeruginosa [2]; P. aeruginosa isolates): 0.016-0.5^
MIC (P. aeruginosa [2]; [10]): (MIC = 0.25)
activity (MIC) against P. aeruginosa isolates (P. aeruginosa [2]): highly active
change in MIC over serial passage (S. maltophilia [3]): no increase in MIC
inner membrane depolarization (diSC3-5) [4]: dose-dependent increase in membrane depolarization
MBEC50 (B. multivorans [5]): 2 µg/mL
MBEC90 (B. multivorans [5]): 16 µg/mL
MBEC Range (B. multivorans [5]): 1 to 16 µg/mL
MBEC50 (A. xylosoxidans): 2 µg/mL
MBEC90 (A. xylosoxidans): 8 µg/mL
MBEC Range (A. xylosoxidans): 0.125 to 32 µg/mL
MBEC50 (S. maltophilia [6]): 1 µg/mL
MBEC90 (S. maltophilia [6]): 2 µg/mL
MBEC Range (S. maltophilia [6]): 0.125 to 4 µg/mL
antibiofilm activity (MBEC) against S. maltophilia (S. maltophilia [6]): highly active
MIC (M. smegmatis): 0.5 µg/mL
MIC50 (A. dolens [7]): 4 µg/mL
MIC90 (A. dolens [7]): 8 µg/mL
MIC Range (A. dolens [7]; in µg/mL): 0.016-16
MBEC50 (P. aeruginosa [8]): 0.25 µg/mL
MBEC90 (P. aeruginosa [8]): 1 µg/mL
MBEC Range (P. aeruginosa [8]): 0.016 to 2 µg/mL
antibiofilm activity (MBEC) against P. aeruginosa (P. aeruginosa [8]): highly active
MIC (M. kansasii): 2 µg/mL
MBEC50 (A. dolens [9]): 4 µg/mL
MBEC90 (A. dolens [9]): 8 µg/mL
MBEC Range (A. dolens [9]): 1 to 8 µg/mL

B1: GN370: lysin-AMP construct, SEQ ID NO: 149: MIDR, FIRL and NPTH moieties N-terminal to GN202 lysin (protein)
chain: MIDRFIRLNPTHGPRRPRRPGRRAPVRTSQRGIDLIKSFEGLRLSAYQDSVGVWTIGYGTTRGVTRYMTITVEQAERMLSNDIQRFEPELDRLAKVPLNQNQWDALMSFVYNLGAANLASSTLLDLLNKGDYQGAADQFPHWVNAGGKRLDGLVKRRAAERALFLEPLS
modifications: GN370 lysin
MIC50 (B. multivorans [1]): 16 µg/mL
MIC90 (B. multivorans [1]): > 32 µg/mL
MIC50 (A. ruhlandii): 2 µg/mL
MIC90 (A. ruhlandii): > 32 µg/mL
MIC50 (P. apista; P. apista isolates): > 32 µg/mL
MIC90 (P. apista; P. apista isolates): > 32 µg/mL
MIC50 (P. apista; [11]): >64 µg/mL
MIC90 (P. apista; [11]): >64 µg/mL
MIC Range (P. apista; [11]): >64 µg/mL
MIC50 (B. gladioli): > 32 µg/mL
MIC90 (B. gladioli): > 32 µg/mL
MIC50 (P. aeruginosa [2]; [12]): 0.125 µg/mL
MIC90 (P. aeruginosa [2]; [12]): 0.5 µg/mL
MIC Range (P. aeruginosa [2]; MDR P. aeruginosa isolates (n = 13), in µg/mL): 0.0625-0.5
MIC (P. aeruginosa [2]; P. aeruginosa ATCC 27853 (head of Table 19)): 1 µg/mL
MIC (P. aeruginosa [2]; P. aeruginosa PA25): PA25 (MIC = 2 μg/mL)
MIC90 (P. aeruginosa [2]; P. aeruginosa clinical and resistant isolates): 2 µg/mL
MIC50 (P. aeruginosa [2]; P. aeruginosa isolates): 0.25 µg/mL
MIC90 (P. aeruginosa [2]; P. aeruginosa isolates): 0.5 µg/mL
MIC Range (P. aeruginosa [2]; P. aeruginosa isolates, in µg/mL): 0.06-1
MIC (P. aeruginosa [2]; [10]): (MIC = 0.5)
MIC50 (P. aeruginosa [2]; [13]): 1 µg/mL
MIC90 (P. aeruginosa [2]; [13]): 2 µg/mL
MIC Range (P. aeruginosa [2]; [13]): 0.25 to 2 µg/mL
MIC50 (P. aeruginosa [2]; [14]): 1 µg/mL
MIC90 (P. aeruginosa [2]; [14]): 2 µg/mL
MIC Range (P. aeruginosa [2]; [14]): 0.25 to 2 µg/mL
MIC50 (P. aeruginosa [2]; [15]): 1 µg/mL
MIC90 (P. aeruginosa [2]; [15]): 2 µg/mL
MIC Range (P. aeruginosa [2]; [15]): 0.25 to 2 µg/mL
MIC (P. aeruginosa [2]; XDR P. aeruginosa strain AR-769): 2 µg/mL
MIC (P. aeruginosa [2]; […], before serial passage): 1 µg/mL
activity (MIC) against P. aeruginosa isolates (P. aeruginosa [2]): highly active
GN370 MIC50 (P. aeruginosa [2]; [16]): 0.25 µg/mL
GN370 MIC90 (P. aeruginosa [2]; [16]): 0.5 µg/mL
GN370 MIC Range (P. aeruginosa [2]; carbapenem-resistant P. aeruginosa isolates (n = 12), in µg/mL): 0.0625-1
MIC50 (P. aeruginosa [2]; [17]): 0.25 µg/mL
MIC90 (P. aeruginosa [2]; [17]): 1 µg/mL
MIC Range (P. aeruginosa [2]; mucoid P. aeruginosa isolates (n = 11), in µg/mL): 0.0625-1
MIC50 (P. aeruginosa [2]; [18]): 0.25 µg/mL
MIC90 (P. aeruginosa [2]; [18]): 1 µg/mL
MIC Range (P. aeruginosa [2]; α-hemolytic P. aeruginosa isolates (n = 13), in µg/mL): 0.0625-1
change in MIC over serial passage (S. maltophilia [3]): no increase in MIC
MBEC50 (B. multivorans [5]; [19]): 8 µg/mL
MBEC90 (B. multivorans [5]; [19]): 64 µg/mL
MBEC50 (A. xylosoxidans; [20]): 8 µg/mL
MBEC90 (A. xylosoxidans; [20]): >256 µg/mL
antibiofilm activity (MBEC) against S. maltophilia (S. maltophilia [6]): highly active
MBEC50 (S. maltophilia [6]; [21]): 1 µg/mL
MBEC90 (S. maltophilia [6]; [21]): 2 µg/mL
MBEC Range (S. maltophilia [6]; [21]): 0.064-4 ^ μg/mL
MIC50 (A. dolens [7]): 32 µg/mL
MIC90 (A. dolens [7]): > 32 µg/mL
antibiofilm activity (MBEC) against P. aeruginosa (P. aeruginosa [8]): highly active
MBEC50 (P. aeruginosa [8]; MDR and XDR P. aeruginosa (9)): 2 µg/mL
MBEC90 (P. aeruginosa [8]; MDR and XDR P. aeruginosa (9)): 4 µg/mL
MBEC Range (P. aeruginosa [8]; MDR and XDR P. aeruginosa (9)): 1 to 4 µg/mL
Number of isolates at MBEC 1 μg/mL (P. aeruginosa [8]; MDR and XDR P. aeruginosa (9)): 4
Number of isolates at MBEC 2 μg/mL (P. aeruginosa [8]; MDR and XDR P. aeruginosa (9)): 4
Number of isolates at MBEC 4 μg/mL (P. aeruginosa [8]; MDR and XDR P. aeruginosa (9)): 1
MBEC50 (P. aeruginosa [8]; [22]): 1 µg/mL
MBEC90 (P. aeruginosa [8]; [22]): 2 µg/mL
MBEC Range (P. aeruginosa [8]; [22]): 0.064-4 ^ μg/mL
MBEC50 (A. dolens [9]; [23]): 32 µg/mL
MBEC90 (A. dolens [9]; [23]): 128 µg/mL
MBEC Range (A. dolens [9]; [23]): 4 to 128 µg/mL
